Patent publication US20240336686A1
Where a chain is given by its changes, count along the chain named. Read-outs that look alike come from different tables or passages of the source. Blank lines part the entries; values can stand above or below the binder they belong to.

How the values were obtained:
Human SIRPα v1 (human) = Human SIRPα v1 (human) (UniProt P78324); assay: SPR (Biacore), 1:1 binding model
[1] = molecular target: human SIRPα on CHO-K1 cells (human) (UniProt P78324); assay: FACS, CHO-K1 cells overexpressing human SIRPα, anti-human Fc-PE, MFI
[2] = molecular target: human SIRPα protein (Octet assay) (human) (UniProt P78324); assay: Octet; antibody on sensor, SIRPα protein in solution
[3] = molecular target: human SIRPα on CHO-K1 cells (human) (UniProt P78324); assay: FACS, CHO-K1 cells overexpressing human SIRPα, anti-human Fc-PE, MFI; remark: listed apart in the source
[4] = molecular target: human Claudin18.2 on Raji cells (human) (UniProt P56856); assay: FACS, Raji cells overexpressing human Claudin18.2, anti-human Fc-PE, MFI

Chain of Human SIRPα v1 (human) (P78324 31-370): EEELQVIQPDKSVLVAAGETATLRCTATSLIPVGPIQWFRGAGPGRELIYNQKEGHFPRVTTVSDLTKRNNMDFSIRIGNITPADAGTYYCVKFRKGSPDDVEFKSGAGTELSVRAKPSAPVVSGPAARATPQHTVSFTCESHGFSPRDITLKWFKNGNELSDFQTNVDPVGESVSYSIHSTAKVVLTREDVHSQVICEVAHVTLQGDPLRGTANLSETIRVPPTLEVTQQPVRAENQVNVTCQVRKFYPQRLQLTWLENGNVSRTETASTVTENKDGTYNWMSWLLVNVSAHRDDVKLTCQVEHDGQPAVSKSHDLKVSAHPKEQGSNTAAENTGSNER

Kd (Human SIRPα v1 (human)): 1.53 nM
koff (Human SIRPα v1 (human)): 0.000924 s⁻¹
kon (Human SIRPα v1 (human)): 602000 M⁻¹ s⁻¹
EC50 (read off the curve) [1]: 0.3 nM
Kd [2]: 2.12 nM
koff [2]: 0.00109 s⁻¹
kon [2]: 512000 M⁻¹ s⁻¹
EC50 (read off the curve) [3]: 0.5 nM
B1: Anti-SIRPα antibody C25 (antibody, V domains shown)
VH: EVQLQQSGAELVKPGASVKLSCTASGFNIKDYYMHWVKQRTEQGLEWIGRIDPEDGETKYAPKFQGKATITADTSSNTAYLQLSSLTSEDTAVYYCDRGLAYWGQGTLVTVSA
VL: QIVLTQSPAIMSASPGEKVTLTCSASSSVSSSYLYWYQQKPGSSPKLWIYSTSNLASGVPARFSGSGSGTSYSLTISSMEAEDAASYFCHQWSSYPYTFGGGTKLEIK

EC50 (read off the curve) [3]: 0.5 nM
B2: Anti-Claudin18.2/SIRPα bispecific antibody ES028-013 (bispecific antibody, not shown: a dimerising Fc or GST)
light: B1 VL
heavy (part 1 of 2): B1 VH
heavy (part 2 of 2): GGGGSGGGGSGGGGSDIVMTQSPDSLAVSLGERATINCKSSQSLLNAGNQKNYLTWYQQKPGQPPKLLIYWSSTRESGVPDRFSGSGSGTDFTLTISSLQAEDVAVYHCQNNYYYPLTFGGGTKLEIKGGGGSGGGGSGGGGSGGGGSQVQLVQSGAEVKKPGASVKVSCKASGYTFTNWVHWVRQAPGQGLEWMGEINPTNARSNYNEKFKKRVTMTRDTSTSTVYMELSSLRSEDTAVYYCARIYYGNSFAHWGQGTLVTVSS

EC50 (read off the curve) [1]: 0.4 nM
B3: Anti-PDL1/SIRPα bispecific antibody ES019-026 (bispecific antibody, not shown: small tags and cut ends; a dimerising Fc or GST)
light (part 1 of 2): EVQVVESGGGLVQSGGSLKLSCAGSGFTESAGFMVWHRQVPGKERELVALIATPSGSTNYADSVKGRFTISRDNGKNTVYLQMNSLKPEDTAVYYCNIRGYWGQGTLVTVSS
light (part 2 of 2): B1 VL
heavy: B1 VH

Kd [2]: 2.44 nM
koff [2]: 0.00133 s⁻¹
kon [2]: 544000 M⁻¹ s⁻¹
EC50 (read off the curve) [3]: 0.5 nM
B4: Anti-Claudin18.2/SIRPα bispecific antibody ES028-009 (bispecific antibody, not shown: a dimerising Fc or GST)
light (part 1 of 2): B1 VL
light (part 2 of 2): B2 heavy (part 2 of 2)
heavy: B1 VH

EC50 (read off the curve) [1]: 0.3 nM
B5: Anti-PDL1/SIRPα bispecific antibody ES019-024 (bispecific antibody, not shown: a dimerising Fc or GST)
light: B1 VL
heavy (part 1 of 2): B1 VH
heavy (part 2 of 2): B3 light (part 1 of 2)

Kd (Human SIRPα v1 (human)): 3.05 nM
koff (Human SIRPα v1 (human)): 0.00183 s⁻¹
kon (Human SIRPα v1 (human)): 599000 M⁻¹ s⁻¹
B6: Humanized anti-SIRPα antibody hu025.021 (antibody, V domains shown)
VH: EVQLVQSGAEVKKPGATVKISCKVSGFNIKDYYMHWVQQAPGKGLEWIGRIDPEDAETKYAPKFQGRVTITADTSTNTAYMELSSLRSEDTAVYYCDRGLAYWGQGTLVTVSS
VL: EIVLTQSPATLSLSPGERATLSCSASSSVSSSYLYWYQQKPGQAPKLWIYSTSNLASGIPARFSGSGSGTDYTLTISSLEPEDFAVYYCHQWSSYPYTFGQGTKLEIK

Kd (Human SIRPα v1 (human)): 2.29 nM
koff (Human SIRPα v1 (human)): 0.00123 s⁻¹
kon (Human SIRPα v1 (human)): 536000 M⁻¹ s⁻¹
B7: Humanized anti-SIRPα antibody hu025.059 (antibody, V domains shown)
VH: B6 VH with V24A
VL: B6 VL

Kd (Human SIRPα v1 (human)): 2.67 nM
koff (Human SIRPα v1 (human)): 0.00172 s⁻¹
kon (Human SIRPα v1 (human)): 643000 M⁻¹ s⁻¹
B8: Humanized anti-SIRPα antibody hu025.023 (antibody, V domains shown)
VH: B6 VH
VL: B6 VL with Y72F

Kd (Human SIRPα v1 (human)): 1.99 nM
koff (Human SIRPα v1 (human)): 0.00111 s⁻¹
kon (Human SIRPα v1 (human)): 560000 M⁻¹ s⁻¹
B9: Humanized anti-SIRPα antibody hu025.060 (antibody, V domains shown)
VH: B6 VH with V24A
VL: B6 VL with Y72F

Kd [2]: 1.51 nM
koff [2]: 0.000271 s⁻¹
kon [2]: 179000 M⁻¹ s⁻¹
EC50 (read off the curve) [3]: 0.8 nM
EC50 (read off the curve) [4]: 2 nM
B10: Anti-Claudin18.2/SIRPα bispecific antibody ES028-001 (bispecific antibody, not shown: a dimerising Fc or GST)
light (part 1 of 2): DIVMTQSPDSLAVSLGERATINCKSSQSLLNAGNQKNYLTWYQQKPGQPPKLLIYWSSTRESGVPDRFSGSGSGTDFTLTISSLQAEDVAVYHCQNNYYYPLTFGGGTKLEIK
light (part 2 of 2): GGGGSGGGGSGGGGSQIVLTQSPAIMSASPGEKVTLTCSASSSVSSSYLYWYQQKPGSSPKLWIYSTSNLASGVPARFSGSGSGTSYSLTISSMEAEDAASYFCHQWSSYPYTFGGGTKLEIKGGGGSGGGGSGGGGSGGGGSEVQLQQSGAELVKPGASVKLSCTASGFNIKDYYMHWVKQRTEQGLEWIGRIDPEDGETKYAPKFQGKATITADTSSNTAYLQLSSLTSEDTAVYYCDRGLAYWGQGTLVTVSA
heavy: QVQLVQSGAEVKKPGASVKVSCKASGYTFTNWVHWVRQAPGQGLEWMGEINPTNARSNYNEKFKKRVTMTRDTSTSTVYMELSSLRSEDTAVYYCARIYYGNSFAHWGQGTLVTVSS

Kd [2]: 1.41 nM
koff [2]: 0.00047 s⁻¹
kon [2]: 334000 M⁻¹ s⁻¹
EC50 (read off the curve) [3]: 0.9 nM
EC50 (read off the curve) [4]: 1 nM
B11: Anti-Claudin18.2/SIRPα bispecific antibody ES028-005 (bispecific antibody, not shown: a dimerising Fc or GST)
light: B10 light (part 1 of 2)
heavy (part 1 of 2): B10 heavy
heavy (part 2 of 2): B10 light (part 2 of 2)

EC50 (read off the curve) [4]: 1 nM
B12: Anti-Claudin18.2 antibody hu28.H1L2 (antibody, V domains shown)
VH: B10 heavy
VL: B10 light (part 1 of 2)
